The source of these data is patent US20140378536A1 (VALTED, published 2014).

For the test, the target named is T1, FLAG-tagged PARIS (full-length PARIS, ZNF746, in pCMV-Tag2A) (human, UniProt Q6NUN9 1-644).
T1 construct: Expressed in SH-SY5Y cells from cDNA IMAGE:30347892; The construct limits it prints (1-644, 322-644) match the 644-residue human entry; also called FLAG-PARIS; pCMV-FLAG-PARIS; not shown: N-terminal FLAG tag of vector pCMV-Tag2A
In words: co-immunoprecipitation, IP of FLAG-PARIS (FIG. 20). Here is the method:
For co-immunoprecipitation from cell cultures, SH-SY5Y cells were transfected with 2 μg of each plasmid, unless otherwise indicated.

T1 sequence (Q6NUN9 whole entry): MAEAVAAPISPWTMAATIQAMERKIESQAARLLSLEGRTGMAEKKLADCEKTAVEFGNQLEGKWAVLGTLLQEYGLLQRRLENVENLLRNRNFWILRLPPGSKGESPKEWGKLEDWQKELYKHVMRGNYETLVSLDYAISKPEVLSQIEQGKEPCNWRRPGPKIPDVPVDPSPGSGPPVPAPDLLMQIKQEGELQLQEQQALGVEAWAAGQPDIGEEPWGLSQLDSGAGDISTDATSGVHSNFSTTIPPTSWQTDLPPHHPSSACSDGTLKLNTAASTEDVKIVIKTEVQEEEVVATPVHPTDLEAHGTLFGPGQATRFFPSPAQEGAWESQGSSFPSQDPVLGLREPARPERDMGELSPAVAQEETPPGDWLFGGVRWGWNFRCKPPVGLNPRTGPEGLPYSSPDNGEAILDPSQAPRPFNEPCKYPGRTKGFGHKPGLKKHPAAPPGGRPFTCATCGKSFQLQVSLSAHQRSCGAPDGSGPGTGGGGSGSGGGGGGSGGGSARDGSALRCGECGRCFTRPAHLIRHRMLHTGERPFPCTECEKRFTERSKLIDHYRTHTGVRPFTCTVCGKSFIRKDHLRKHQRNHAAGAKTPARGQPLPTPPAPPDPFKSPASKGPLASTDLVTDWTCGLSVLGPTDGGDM

B1: HA-tagged parkin truncation, amino acids 1-198 (UBL-SH) (other, UniProt O60260 1-198, looked up)
chain: MIVFVRFNSSHGFPVEVDSDTSIFQLKEVVAKRQGVPADQLRVIFAGKELRNDWTVQNCDLDQQSIVHIVQRPWRKGQEMNATGGDDPRNAAGGCEREPQSLTRVDLSSSVLPGDSVGLAVILHTDSRKDSPPAGSPAGRSIYNSFYVYCKGPCQRVQPGKLRVQCSTCRQATLTLTQGPSCWDDVLIPNRMSGECQS
notes: range 1-198; also called N-terminal UBL-SH domain; not shown: HA tag of vector pRK5-HA
On to B1, for which the binding result was “no binding”.
